Source: patent publication US20240239864A1 (US Dept. of Health and Human Services, published 2024)

Biological target: T1, HLA-A*02:01 CD22 p228-236 tetramer (human)
T1 construct: Bought monomer, loaded by UV peptide exchange and made into a tetramer; The streptavidin and label are not described; also called p-MHC tetramer
Test: p-MHC tetramer staining of T cells of co-culture well D146W8, flow cytometry

binding result: binds
B1: TCR clone D146W8 (native clone on the T cells of co-culture well D146W8) (TCR, V domains shown)
V domain 1: QKEVEQNSGPLSVPEGAIASLNCTYSDRGSQSFFWYRQYSGKSPELIMFIYSNGDKEDGRFTAQLNKASQYVSLLIRDSQPSDSATYLCAVKGAGGFKTIFGAGTRLFVKA
V domain 2: DTGVSQNPRHKITKRGQNVTFRCDPISEHNRLYWYRQTLGQGPEFLTYFQNEAQLEKSRLLSDRFSAERPKGSFSTLEIQRTEQGDSAMYLCASSPGNTEAFFGQGTRLTVV
notes: also called D146W8 TCR; not shown: constant region of the native human clone
